{
  "source": "patent US20080293089",
  "proteins": {"B1": {"name": "GST-Nedd4 (protein)", "chain": "MATCAVEVFGLLEDEENSRIVRVRVIAGIGLAKKDILGASDPYVRVTLYDPMNGVLTSVQTKTIKKSLNPKWNEEILFRVHPQQHRLLFEVFDENRLTRDDFLGQVDVPLYPLPTENPRLERPYTFKDFVLHPRSHKSRVKGYLRLKMTYLPKTSGSEDDNAEQAEELEPGWVVLDQPDAACHLQQQQEPSPLPPGWEERQDILGRTYYVNHESRRTQWKRPTPQDNLTDAENGNIQLQAQRAFTTRRQISEETESVDNRESSENWEIIREDEATMYSNQAFPSPPPSSNLDVPTHLAEELNARLTIFGNSAVSQPASSSNHSSRRGSLQAYTFEEQPTLPVLLPTSSGLPPGWEEKQDERGRSYYVDHNSRTTTWTKPTVQATVETSQLTSSQSSAGPQSQASTSDSGQQVTQPSEIEQGFLPKGWEVRHAPNGRPFFIDHNTKTTTWEDPRLKIPAHLRGKTSLDTSNDLGPLPPGWEERTHTDGRIFYINHNIKRTQWEDPRLENVAITGPAVPYSRDYKRKYEFFRRKLKKQNDIPNKFEMKLRRATVLEDSYRRIMGVKRADFLKARLWIEFDGEKGLDYGGVAREWFFLISKEMFNPYYGLFEYSATDNYTLQINPNSGLCNEDHLSYFKFIGRVAGMAVYHGKLLDGFFIRPFYKMMLHKPITLHDMESVDSEYYNSLRWILENDPTELDLRFIIDEELFGQTHQHELKNGGSEIVVTNKNKKEYIYLVIQWRFVNRIQKQMAAFKEGFFELIPQDLIKIFDENELELLMCGLGDVDVNDWREHTKYKNGYSANHQVIQWFWKAVLMMDSEKRIRLLQFVTGTSRVPMNGFAELYGSNGPQSFTVEQWGTPEKLPRAHTCFNRLDLPPYESFEELWDKLQMAIENTQGFDGVD"}, "B2": {"name": "GST-Siah2 (protein)", "chain": "MSRPSSTGPSANKPCSKQPPPQPQHTPSPAAPPAAATISAAGPGSSAVPAAAAVISGPGGGGGAGPVSPQHHELTSLFECPVCFDYVLPPILQCQAGHLVCNQCRQKLSCCPTCRGALTPSIRNLAMEKVASAVLFPCKYATTGCSLTLHHTEKPEHEDICEYRPYSCPCPGASCKWQGSLEAVMSHLMHAHKSITTLQGEDIVFLATDINLPGAVDWVMMQSCFGHHFMLVLEKQEKYEGHQQFFAIVLLIGTRKQAENFAYRLELNGNRRRLTWEATPRSIHDGVAAAIMNSDCLVFDTAIAHLFADNGNLGINVTISTCCP"}, "B3": {"name": "GST-Murf1 (protein)", "chain": "MDYKSSLIQDGNPMENLEKQLICPICLEMFTKPVVILPCQHNLCRKCANDIFQAANPYWTSRGSSVSMSGGRFRCPTCRHEVIMDRHGVYGLQRNLLVENIIDIYKQECSSRPLQKGSHPMCKEHEDEKINIYCLTCEVPTCSMCKVFGIHKACEVAPLQSVFQGQKTELNNCISMLVAGNDRVQTIITQLEDSRRVTKENSHQVKEELSQKFDTLYAILDEKKSELLQRITQEQEKKLSFIEALIQQYQEQLDKSTKLVETAIQSLDEPGGATFLLTAKQLIKSIVEASKGCQLGKTEQGFENMDFFTLDLEHIADALRAIDFGTDEEEEEFIEEEDQEEEESTEGKEEGHQ"}, "B4": {"name": "GST-E6AP (protein)", "chain": "MEKLHQCYWKSGEPQSDDIEASRMKRAAAKHLIERYYHQLTEGCGNEACTNEFCASCPTFLRMDNNAAAIKALELYKINAKLCDPHPSKKGASSAYLENSKGAPNNSCSEIKMNKKGARIDFKDVTYLTEEKVYEILELCREREDYSPLIRVIGRVFSSAEALVQSFRKVKQHTKEELKSLQAKDEDKDEDEKEKAACSAAAMEEDSEASSSRIGDSSQGDNNLQKLGPDDVSVDIDAIRRVYTRLLSNEKIETAFLNALVYLSPNVECDLTYHNVYSRDPNYLNLFIIVMENRNLHSPEYLEMALPLFCKAMSKLPLAAQGKLIRLWSKYNADQIRRMMETFQQLITYKVISNEFNSRNLVNDDDAIVAASKCLKMVYYANVVGGEVDTNHNEEDDEEPIPESSELTLQELLGEERRNKKGPRVDPLETELGVKTLDCRKPLIPFEEFINEPLNEVLEMDKDYTFFKVETENKFSFMTCPFILNAVTKNLGLYYDNRIRMYSERRITVLYSLVQGQQLNPYLRLKVRRDHIIDDALVRLEMIAMENPADLKKQLYVEFEGEQGVDEGGVSKEFFQLVVEEIFNPDIGMFTYDESTKLFWFNPSSFETEGQFTLIGIVLGLAIYNNCILDVHFPMVVYRKLMGKKGTFRDLGDSHPVLYQSLKDLLEYEGNVEDDMMITFQISQTDLFGNPMMYDLKENGDKIPITNENRKEFVNLYSDYILNKSVEKQFKAFRRGFHMVTNESPLKYLFRPEEIELLICGSRNLDFQALEETTEYDGGYTRDSVLIREFWEIVHSFTDEQKRLFLQFTTGTDRAPVGGLGKLKMIIAKNGPDTERLPTSHTCFNVLLLPEYSSKEKLKERLLKAITYAKGFGML"}, "B5": {"name": "His-CHIP (protein)", "chain": "MKGKEEKEGGARLGAGGGSPEKSPSAQELKEQGNRLFVGRKYPEAAACYGRAITRNPLVAVYYTNRALCYLKMQQHEQALADCRRALELDGQSVKAHFFLGQCQLEMESYDEAIANLQRAYSLAKEQRLNFGDDIPSALRIAKKKRWNSIEERRIHQESELHSYLSRLIAAERERELEECQRNHEGDEDDSHVRAQQACIEAKHDKYMADMDELFSQVDEKRKKRDIPDYLCGKISFELMREPCITPSGITYDRKDIEEHLQRVGHFDPVTRSPLTQEQLIPNLAMKEVIDAFISENGWVEDY"}},
  "data": [
    {"biological_target": "T1, S5a (substrate in the E3 ligase selectivity example), P55036", "T1 chain": "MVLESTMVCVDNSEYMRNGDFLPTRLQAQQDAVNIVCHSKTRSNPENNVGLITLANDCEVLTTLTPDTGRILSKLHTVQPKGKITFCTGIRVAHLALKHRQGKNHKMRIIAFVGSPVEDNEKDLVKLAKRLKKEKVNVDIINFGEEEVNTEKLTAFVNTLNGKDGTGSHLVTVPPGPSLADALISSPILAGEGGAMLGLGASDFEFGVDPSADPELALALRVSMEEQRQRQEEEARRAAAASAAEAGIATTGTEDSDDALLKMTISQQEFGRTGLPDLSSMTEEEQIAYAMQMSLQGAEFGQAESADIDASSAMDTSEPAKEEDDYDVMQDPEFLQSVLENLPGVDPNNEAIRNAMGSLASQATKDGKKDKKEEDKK", "values": [
      {"protein": "B1", "Ubiquitinated S5a?": "Yes"},
      {"protein": "B2", "Ubiquitinated S5a?": "Yes (low)"},
      {"protein": "B3", "Ubiquitinated S5a?": "Yes"},
      {"protein": "B4", "Ubiquitinated S5a?": "Yes"},
      {"protein": "B5", "Ubiquitinated S5a?": "Yes"}
    ]}
  ]
}
